Data: paper PMC5457438
Residue numbers refer to the chain shown, from its start.

Legend:
[1] = biological target: recombinant complete cytoplasmic portion of MaeK (MaeKC) (Lactobacillus casei); assay: SEC; gel filtration chromatography of MaeKC (Superdex200 16/60); single peak
[2] = test system: T1, MaeR D54A D54A (Lacticaseibacillus (Lactobacillus) casei BL23), ORF:6e0afda8; assay: EMSA; conditions: EMSA: 15 ul of 2.5 mM Tris-HCl pH 7.5, 100 mM NaCl, 25 mM MgCl2, 0.25 mM EDTA, 0.25 mM DTT, 10% glycerol, 1.5 ug salmon sperm DNA, 100 ng DNA, 62-375 ng …
T1 sequence: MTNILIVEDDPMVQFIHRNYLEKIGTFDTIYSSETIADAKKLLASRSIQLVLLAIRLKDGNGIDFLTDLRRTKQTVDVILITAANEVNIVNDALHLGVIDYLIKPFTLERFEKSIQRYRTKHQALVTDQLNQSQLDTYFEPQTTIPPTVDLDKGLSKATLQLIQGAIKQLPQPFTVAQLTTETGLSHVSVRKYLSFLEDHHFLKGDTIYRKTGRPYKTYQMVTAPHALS

[3] = test system: T2, MaeR full length (MaeRFL) (Lacticaseibacillus (Lactobacillus) casei BL23), ORF:6e0afda8; assay: EMSA; conditions: EMSA: 15 ul of 2.5 mM Tris-HCl pH 7.5, 100 mM NaCl, 25 mM MgCl2, 0.25 mM EDTA, 0.25 mM DTT, 10% glycerol, 1.5 ug salmon sperm DNA, 100 ng DNA, 62-375 ng …
T2 sequence: T1 sequence with A54D

[4] = test system: T3, MaeR D54N D54N (Lacticaseibacillus (Lactobacillus) casei BL23), ORF:6e0afda8; assay: EMSA; conditions: EMSA: 15 ul of 2.5 mM Tris-HCl pH 7.5, 100 mM NaCl, 25 mM MgCl2, 0.25 mM EDTA, 0.25 mM DTT, 10% glycerol, 1.5 ug salmon sperm DNA, 100 ng DNA, 62-375 ng …
T3 sequence: T1 sequence with A54N

stoichiometry N [1] | Substance | binding [2] | binding [3] | binding [4]
2 | recombinant complete cytoplasmic portion of MaeK (MaeKC) (domain or fragment) | – | – | –
– | CGTTGATTTGTTGGGTGTAACCGTCTTGTTCTCCATGTTTCCTTACCCCCAATCTTTTGTTACTTACAGCATATTGTAAGCGCTTCATCAGGGGAAGATTATTTAACTTATTAAACCATAAACCCATTTATTTAAGCGATTGTTTTACTATTCACAAGATGGTTTCTCTACTGAACAGGAGTATGATCATGAAAATAAAAGGATGGCGGCTATGGGGCT (double strand) [mae promoter (maeP-maeK intergenic region, 219 bp)] | no binding | binds | binds
